In US20260115305A1, “LINKERS, CONJUGATES AND APPLICATIONS THEREOF” (GENEQUANTUM HEALTHCARE (SUZHOU) CO., LTD., priority 2022, published 2026):

T1: TROP2 (human, UniProt P09758 27-323)
T1 sequence (looked up): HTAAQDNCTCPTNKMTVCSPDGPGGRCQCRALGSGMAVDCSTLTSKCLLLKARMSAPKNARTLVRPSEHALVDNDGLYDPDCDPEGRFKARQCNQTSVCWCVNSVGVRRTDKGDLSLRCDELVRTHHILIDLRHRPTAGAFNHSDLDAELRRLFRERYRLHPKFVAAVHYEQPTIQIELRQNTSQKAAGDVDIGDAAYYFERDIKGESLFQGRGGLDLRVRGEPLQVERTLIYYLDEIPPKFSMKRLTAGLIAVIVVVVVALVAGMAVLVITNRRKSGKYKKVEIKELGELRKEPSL


Tests used:
[1] = first-phase clinical trial; cited from earlier work
[2] = target: T1, TROP2; experiment: cell-based or functional assay
[3] = target: T1, TROP2; experiment: cell-based or functional assay; remark: listed apart in the source

Row | Molecule | patients with adverse events above Grade 3 [1] [%] | patients with interstitial lung disease [1] [%] | IC50, inhibition of proliferation of TROP2-positive BxPC-3 cells (CellTiterGlo, 120 h) [2] [nM] | Endocytosis by TROP2-positive tumor cells: Half Life [3] [min] | Endocytosis by TROP2-positive tumor cells: Maximum endocytosis (MFI) [3] [MFI] | Endocytosis by TROP2-positive tumor cells: Maximum endocytosis rate (%) [3] [%]
1 | DS1062 | 48 | 8 | – | – | – | –
2 | ADC-5 (antibody, human IgG1, kappa, V domains shown, Linker-Payload 1 joined by Sortase A ligation at the C-terminal GALPETGG tag of the light chain (resulting sequence LPXTGn with n = 3, then linker-payload); DAR value 3.5) VH: QVQLQQSGSELKKPGASVKVSCKASGYTFTNYGMNWVKQAPGQGLKWMGWINTYTGEPTYTDDFKGRFAFSLDTSVSTAYLQISSLKADDTAVYFCARGGFGSSYWYFDVWGQGSLVTVSS VL: DIQLTQSPSSLSASVGDRVSITCKASQDVSIAVAWYQQKPGKAPKLLIYSASYRYTGVPDRFSGSGSGTDFTLTISSLQPEDFAVYYCQQHYITPLTFGAGTKVEIKR | – | – | 0.249 | 45.6 | 18600 | 46
3 | Ab2 (antibody, human IgG1, kappa, V domains shown) VH: QVQLQQSGSELKKPGASVKVSCKASGYTFTNYGMNWVKQAPGQGLKWMGWINTYTGEPTYTDDFKGRFAFSLDTSVSTAYLQISSLKADDTAVYFCARGGFGSSYWYFDVWGQGSLVTVSS VL: DIQLTQSPSSLSASVGDRVSITCKASQDVSIAVAWYQQKPGKAPKLLIYSASYRYTGVPDRFSGSGSGTDFTLTISSLQPEDFAVYYCQQHYITPLTFGAGTKVEIKR | – | – | – | 48.2 | 18500 | 46
4 | ADC-7 (antibody, human IgG1, kappa, V domains shown, Linker-Payload 3 joined by Sortase A ligation at the C-terminal GALPETGG tag of the light chain; DAR value 3.6) VH: QVQLQQSGSELKKPGASVKVSCKASGYTFTNYGMNWVKQAPGQGLKWMGWINTYTGEPTYTDDFKGRFAFSLDTSVSTAYLQISSLKADDTAVYFCARGGFGSSYWYFDVWGQGSLVTVSS VL: DIQLTQSPSSLSASVGDRVSITCKASQDVSIAVAWYQQKPGKAPKLLIYSASYRYTGVPDRFSGSGSGTDFTLTISSLQPEDFAVYYCQQHYITPLTFGAGTKVEIKR | – | – | 0.602 | – | – | –
5 | ADC-6 (antibody, human IgG1, kappa, V domains shown, Linker-Payload 2 joined by Sortase A ligation at the C-terminal GALPETGG tag of the light chain; DAR value 3.6) VH: QVQLQQSGSELKKPGASVKVSCKASGYTFTNYGMNWVKQAPGQGLKWMGWINTYTGEPTYTDDFKGRFAFSLDTSVSTAYLQISSLKADDTAVYFCARGGFGSSYWYFDVWGQGSLVTVSS VL: DIQLTQSPSSLSASVGDRVSITCKASQDVSIAVAWYQQKPGKAPKLLIYSASYRYTGVPDRFSGSGSGTDFTLTISSLQPEDFAVYYCQQHYITPLTFGAGTKVEIKR | – | – | 0.254 | 42.8 | 18200 | 45
